Article PMC2774266, “Misguided Transcriptional Elongation Causes Mixed Lineage Leukemia” (PLoS Biology, 2009)

Biological target: endogenous CDK9 (cyclin dependent kinase 9, kinase of pTEFb) (human (endogenous in HEK293T, SEM and …, UniProt P50750 1-372))
Assay: cell-based or functional assay

Sequence of endogenous CDK9 (cyclin dependent kinase 9, kinase of pTEFb) (human (P50750 whole entry): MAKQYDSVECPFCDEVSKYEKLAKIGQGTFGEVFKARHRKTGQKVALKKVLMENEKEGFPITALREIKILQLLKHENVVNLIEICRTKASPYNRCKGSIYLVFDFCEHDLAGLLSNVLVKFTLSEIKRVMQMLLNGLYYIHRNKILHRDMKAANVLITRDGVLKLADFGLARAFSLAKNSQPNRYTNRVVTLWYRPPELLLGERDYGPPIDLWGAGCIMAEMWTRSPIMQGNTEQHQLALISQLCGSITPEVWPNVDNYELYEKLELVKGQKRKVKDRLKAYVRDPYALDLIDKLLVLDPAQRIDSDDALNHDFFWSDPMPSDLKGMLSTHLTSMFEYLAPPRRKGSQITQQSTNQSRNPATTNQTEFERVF

B1: ENL (eleven nineteen leukemia protein), full-length two-hybrid fusion (natural protein, human, UniProt Q03111 1-559, looked up)
chain: MDNQCTVQVRLELGHRAQLRKKPTTEGFTHDWMVFVRGPEQCDIQHFVEKVVFWLHDSFPKPRRVCKEPPYKVEESGYAGFIMPIEVHFKNKEEPRKVCFTYDLFLNLEGNPPVNHLRCEKLTFNNPTTEFRYKLLRAGGVMVMPEGADTVSRPSPDYPMLPTIPLSAFSDPKKTKPSHGSKDANKESSKTSKPHKVTKEHRERPRKDSESKSSSKELEREQAKSSKDTSRKLGEGRLPKEEKAPPPKAAFKEPKMALKETKLESTSPKGGPPPPPPPPPRASSKRPATADSPKPSAKKQKKSSSKGSRSAPGTSPRTSSSSSFSDKKPAKDKSSTRGEKVKAESEPREAKKALEVEESNSEDEASFKSESAQSSPSNSSSSSDSSSDSDFEPSQNHSQGPLRSMVEDLQSEESDEDDSSSGEEAAGKTNPGRDSRLSFSDSESDNSADSSLPSREPPPPQKPPPPNSKVSGRRSPESCSKPEKILKKGTYDKAYTDELVELHRRLMALRERNVLQQIVNLIEETGHFNVTNTTFDFDLFSLDETTVRKLQSCLEAVAT
- luciferase in the RNA tethering assay (TAR/IIb reporter) of Rev-ENL in 293T cells, relative to Rev alone; contact with pTEFb indirect: ~6 fold
